Assay results published in IntAct's records for PubMed 35512704.

B1: Mothers against decapentaplegic homolog 4 (Homo sapiens), Q13485 (parent)
chain: MDNMSITNTPTSNDACLSIVHSLMCHRQGGESETFAKRAIESLVKKLKEKKDELDSLITAITTNGAHPSKCVTIQRTLDGRLQVAGRKGFPHVIYARLWRWPDLHKNELKHVKYCQYAFDLKCDSVCVNPYHYERVVSPGIDLSGLTLQSNAPSSMMVKDEYVHDFEGQPSLSTEGHSIQTIQHPPSNRASTETYSTPALLAPSESNATSTANFPNIPVASTSQPASILGGSHSEGLLQIASGPQPGQQQNGFTGQPATYHHNSTTTWTGSRTAPYTPNLPHHQNGHLQHHPPMPPHPGHYWPVHNELAFQPPISNHPAPEYWCSIAYFEMDVQVGETFKVPSSCPIVTVDGYVDPSGGDRFCLGQLSNVHRTEAIERARLHIGKGVQLECKGEGDVWVRCLSDHAVFVQSYYLDREAGRAPGDAVHKIYPSAYIKVFDLRQCHRQMQQQAATAQAAAAAQAAAVAGNIPGPGSVGGIAPAISLSAAAGIGVDDLRRLCILRMSFVKGWGPDYPRQSIKETPCWIEIHLHRALQLLDEVLHTMPIADPQPLD
partner: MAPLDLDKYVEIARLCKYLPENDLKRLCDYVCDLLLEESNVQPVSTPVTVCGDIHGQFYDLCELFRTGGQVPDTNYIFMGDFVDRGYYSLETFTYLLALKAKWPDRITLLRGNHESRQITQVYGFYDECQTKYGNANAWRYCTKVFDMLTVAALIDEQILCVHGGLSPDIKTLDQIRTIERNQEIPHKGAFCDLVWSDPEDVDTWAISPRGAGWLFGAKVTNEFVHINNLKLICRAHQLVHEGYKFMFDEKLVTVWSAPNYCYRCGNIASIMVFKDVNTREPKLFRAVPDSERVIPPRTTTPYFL
B2: Mothers against decapentaplegic homolog 4 (Homo sapiens), Q13485 (parent)
chain: B1 chain
partner: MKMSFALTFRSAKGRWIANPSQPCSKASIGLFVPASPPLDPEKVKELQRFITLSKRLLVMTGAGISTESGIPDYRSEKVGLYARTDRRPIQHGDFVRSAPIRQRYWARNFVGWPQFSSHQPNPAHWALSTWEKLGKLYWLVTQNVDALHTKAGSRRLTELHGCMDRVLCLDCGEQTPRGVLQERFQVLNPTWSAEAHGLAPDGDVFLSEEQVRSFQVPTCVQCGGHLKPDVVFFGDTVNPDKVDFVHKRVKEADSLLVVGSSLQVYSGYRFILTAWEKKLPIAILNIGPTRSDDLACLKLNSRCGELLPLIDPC
B3: Mothers against decapentaplegic homolog 4 (Homo sapiens), Q13485 (parent)
chain: B1 chain
partner: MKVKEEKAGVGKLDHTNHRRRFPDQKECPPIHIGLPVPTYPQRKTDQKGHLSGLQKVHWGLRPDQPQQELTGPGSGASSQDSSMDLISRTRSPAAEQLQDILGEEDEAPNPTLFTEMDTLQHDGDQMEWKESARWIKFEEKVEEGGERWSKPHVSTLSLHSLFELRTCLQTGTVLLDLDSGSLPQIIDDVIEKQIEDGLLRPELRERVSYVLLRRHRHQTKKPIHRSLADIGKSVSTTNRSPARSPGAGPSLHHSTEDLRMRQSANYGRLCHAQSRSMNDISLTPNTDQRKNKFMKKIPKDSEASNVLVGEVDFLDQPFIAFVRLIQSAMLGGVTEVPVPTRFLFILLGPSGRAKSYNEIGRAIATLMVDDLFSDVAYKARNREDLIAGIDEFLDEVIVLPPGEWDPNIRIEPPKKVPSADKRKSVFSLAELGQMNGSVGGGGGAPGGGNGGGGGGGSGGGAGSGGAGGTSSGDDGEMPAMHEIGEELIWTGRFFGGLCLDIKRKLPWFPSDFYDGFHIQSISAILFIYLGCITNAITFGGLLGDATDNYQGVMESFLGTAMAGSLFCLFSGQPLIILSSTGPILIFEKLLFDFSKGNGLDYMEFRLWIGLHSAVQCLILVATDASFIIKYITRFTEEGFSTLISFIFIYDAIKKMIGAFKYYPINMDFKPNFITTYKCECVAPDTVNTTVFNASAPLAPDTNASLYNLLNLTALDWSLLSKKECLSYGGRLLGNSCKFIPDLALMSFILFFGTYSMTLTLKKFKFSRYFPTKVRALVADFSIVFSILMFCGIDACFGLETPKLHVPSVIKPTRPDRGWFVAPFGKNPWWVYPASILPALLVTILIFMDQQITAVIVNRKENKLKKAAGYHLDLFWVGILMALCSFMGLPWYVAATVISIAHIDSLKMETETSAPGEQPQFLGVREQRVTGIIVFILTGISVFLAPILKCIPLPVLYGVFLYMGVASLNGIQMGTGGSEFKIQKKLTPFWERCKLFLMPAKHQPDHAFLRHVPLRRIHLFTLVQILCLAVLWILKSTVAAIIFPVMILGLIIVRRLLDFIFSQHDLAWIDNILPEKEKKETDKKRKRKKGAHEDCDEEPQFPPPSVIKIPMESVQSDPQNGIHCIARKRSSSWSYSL
B4: Mothers against decapentaplegic homolog 4 (Homo sapiens), Q13485 (parent)
chain: B1 chain
partner: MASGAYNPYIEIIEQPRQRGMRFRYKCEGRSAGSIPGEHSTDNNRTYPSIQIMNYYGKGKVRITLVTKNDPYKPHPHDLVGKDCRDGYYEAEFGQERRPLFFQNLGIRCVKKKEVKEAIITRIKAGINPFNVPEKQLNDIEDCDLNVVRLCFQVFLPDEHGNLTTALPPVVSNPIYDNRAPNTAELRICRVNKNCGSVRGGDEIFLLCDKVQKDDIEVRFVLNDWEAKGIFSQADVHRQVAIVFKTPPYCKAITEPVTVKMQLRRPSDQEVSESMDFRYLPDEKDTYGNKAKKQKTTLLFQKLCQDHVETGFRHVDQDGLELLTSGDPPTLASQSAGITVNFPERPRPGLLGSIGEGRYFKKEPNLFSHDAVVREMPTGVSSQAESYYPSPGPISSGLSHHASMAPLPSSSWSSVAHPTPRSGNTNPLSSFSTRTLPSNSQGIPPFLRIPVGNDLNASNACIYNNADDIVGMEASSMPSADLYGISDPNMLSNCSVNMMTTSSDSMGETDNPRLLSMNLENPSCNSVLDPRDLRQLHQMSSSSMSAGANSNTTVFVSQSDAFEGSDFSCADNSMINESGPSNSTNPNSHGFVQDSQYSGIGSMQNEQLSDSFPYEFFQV
B5: Mothers against decapentaplegic homolog 4 (Homo sapiens), Q13485 (parent)
chain: B1 chain
partner: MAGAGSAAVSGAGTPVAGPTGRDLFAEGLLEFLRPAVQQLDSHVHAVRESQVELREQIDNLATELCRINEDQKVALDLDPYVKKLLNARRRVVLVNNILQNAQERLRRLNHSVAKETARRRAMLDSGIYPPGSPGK
B6: Mothers against decapentaplegic homolog 4 (Homo sapiens), Q13485 (parent)
chain: B1 chain
partner: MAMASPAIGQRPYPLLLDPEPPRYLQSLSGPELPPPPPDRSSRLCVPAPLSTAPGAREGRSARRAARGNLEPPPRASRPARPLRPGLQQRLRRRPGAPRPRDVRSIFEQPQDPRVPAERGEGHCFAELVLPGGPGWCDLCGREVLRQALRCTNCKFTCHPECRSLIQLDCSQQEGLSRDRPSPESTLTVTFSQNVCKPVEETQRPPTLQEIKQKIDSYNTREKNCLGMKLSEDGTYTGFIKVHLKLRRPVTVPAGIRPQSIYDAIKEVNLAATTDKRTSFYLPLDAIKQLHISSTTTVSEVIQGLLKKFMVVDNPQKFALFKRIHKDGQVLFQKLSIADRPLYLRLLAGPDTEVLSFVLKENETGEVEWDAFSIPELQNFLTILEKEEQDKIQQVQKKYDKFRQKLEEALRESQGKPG

Variants of: B1
Settings: with ppp6_human PPP6C

Row | effect of a mutation on the interaction | Variant
1 | with no effect | R361C

Variants of: B2
Settings: with sir4_human SIRT4, Q9Y6E7

Row | effect of a mutation on the interaction | Variant
2 | with no effect | G386D

Variants of: B3
Settings: with s4a5_human SLC4A5, Q9BY07

Row | effect of a mutation on the interaction | Variant
3 | with no effect | G386D

Variants of: B3
Settings: with s4a5_human SLC4A5, Q9BY07
Remark: another data set of the same source

Row | effect of a mutation on the interaction | Variant
4 | with no effect | R361C

Variants of: B4
Settings: with rel_human REL

Row | effect of a mutation on the interaction | Variant
5 | with no effect | G386D

Variants of: B5
Settings: with snapn_human SNAPIN

Row | effect of a mutation on the interaction | Variant
6 | with no effect | R361H

Variants of: B6
Settings: with rasf5_human RASSF5, Q8WWW0

Row | effect of a mutation on the interaction | Variant
7 | with no effect | G386D
